# Results from US11473073B2, “Aminopeptidases for protein hydrolyzates” (DUPONT NUTRITION BIOSCIENCES APS, priority 2015, dated 2022).
# What was measured:
# [1] = test system: peptide WHWLQLKPGQPMY (SEQ ID NO:26); conditions: as described by Blinkovsky et al., Biochimica et Biophysica Acta 1480 (2000) 171-181; cited from earlier work
# [2] = test system: peptide WHWLQLKPGQPMY (SEQ ID NO:26); assay: Hydrolysis of proline containing peptide, LC-MS; format: biochemical; conditions: peptide 1 mg/mL, aminopeptidase 1 ug/mL, CPB-Buffer, 55° C.; FIG. 5-7
# Experimental: The peptide […] (SEQ ID NO:26) was hydrolysed with TRI03 and TRI035. The peptide (1 mg/mL) was incubated with 1 ug/mL of the aminopeptidase in 20 mM CPB-Buffer (20 mM Citric acid, 20 mM Phosphate. 20 mM Boric acid) at 55° C. Aliquots (50 μL) were stopped with 50 rel 5% TFA at the indicated time points and subjected to LC-MS analysis.
# Capillary LC-MS/MS analyses were performed using an Agilent 1100 LC system (Agilent Technologies) interfaced to a LTQ Orbitrap Classic hybrid mass spectrometer (Thermo Scientific, Bremen, Germany). Samples were loaded onto a 15 cm Phenomenix Jupiter 4μ Proteo 90A, C4 analytical column. Separation was performed at a flow rate of 16 μL/min using a 10 min gradient of 0-40% Solvent B H2O/CH3CN/HCOOH (50/950/0.65 v/v/v) into the IONMAX® ion source (Thermo Scientific, San Jose). The LTQ Orbitrap Classic instrument was operated in a data-dependent MS/MS mode. The peptide masses were measured by the Orbitrap (MS scans were obtained with a resolution of 60 000 at m/z 400), and up to 2 of the most intense peptide m/z were selected and subjected to fragmentation using CID in the linear ion trap (LTQ). Dynamic exclusion was enabled with a list size of 500 masses, duration of 40 s, and an exclusion mass width of ±10 ppm relative to masses on the list.
# The RAW files were accessed with the program Skyline 2.6.0.7176 (MacLean, B., et al., “Skyline: an open source document editor for creating and analyzing targeted proteomics experiments”, Bioinformatics, 2010, 26(7): p. 966-8) which uses the MS1 intensities to build chromatograms (Schilling, B., et al., “Platform-independent and label-free quantitation of proteomic data using MS1 extracted ion chromatograms in skyline: application to protein acetylation and phosphorylation”, Mol Cell Proteomics, 2012. 11(5): p. 202-14). The precursor isotopic import filter was set to a count of three, (M, M+1, and M+2) at a resolution of 60,000 and the most intense charge state was used. Peptide sequences of the substrate as well as cleavage products were typed into Skyline and intensities were calculated in each sample. […]
molecule,measurement,setting,value
"Aspergillus oryzae PepN 2: Aspergillus oryzae PepN 2 described by A. M. Blinkovsky et al., Biochimica et Biophysica Acta 1480 (2000) 171-181 (protein) RALVSPDEFPEDIQLEDLLEGSQQLEDFAYAYPERNRVFGGKAHDDTVNYLYEELKKTGYYDVYKQPQVHLWSNADQTLKVGDEEIEAKTMTYSPSVEVTADVAVVKNLGCSEADYPSDVEGKVALIKRGECPFGDKSVLAAKAKAAASIVYNNVAGSMAGTLGAAQSDKGPYSAIVGISLEDGQKLIKLAEAGSVSVDLWVDSKQENRTTYNVVAQTKGGDPNNVVALGGHTDSVEAGPGINDDGSGIISNLVIAKALTQYSVKNAVRFLFWTAEEFGLLGSNYYVSHLNATELNKIRLYLNFDMIASPNYALMIYDGDGSAFNQSGPAGSAQIEKLFEDYYDSIDLPHIPTQFDGRSDYEAFILNGIPSGGLFTGAEGIMSEENASRWGGQAGVAYDANYHAAGDNMTNLNHEAFLINSKATAFAVATYANDLSSIPKRNTTSSLHRRARTMRPFGKRAPKTHAHVSGSGCWHSQVEA",hydrolysis of X-Pro bonds including those of WHWLQLKPGQPMY,[1],does not hydrolyze
same,hydrolysis of WHWLQLKPGQPMY to KPGQPMY and further down to QPMY,[2],cleaves the peptide down to QPMY
